Measurements taken from paper PMC3447998 (Biochemistry, 2012).
Where no end group is shown, it is not given here. Me3 = trimethylated alpha-amino group on the N-terminal residue; Me2 = dimethylated alpha-amino group on the N-terminal residue

T1: recombinant human NRMT (N-terminal RCC1 methyltransferase) (human, UniProt Q9BV86 1-223)
T1 sequence (looked up): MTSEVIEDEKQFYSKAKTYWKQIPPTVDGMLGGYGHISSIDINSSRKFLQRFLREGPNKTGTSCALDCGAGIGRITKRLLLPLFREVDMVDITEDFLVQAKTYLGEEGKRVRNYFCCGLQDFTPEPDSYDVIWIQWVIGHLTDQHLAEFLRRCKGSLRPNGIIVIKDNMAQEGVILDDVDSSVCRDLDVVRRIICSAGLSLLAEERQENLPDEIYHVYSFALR


Legend:
[1] = target: T1, recombinant human NRMT (N-terminal RCC1 …); assay: ITC
[2] = target: T1, recombinant human NRMT (N-terminal RCC1 …); assay: ITC; remark: listed apart in the source

Row | Ka [1] [M⁻¹] | Kd [2] [nM] | dH [2] [kcal/mol] | stoichiometry N [2] | Kd of the first phase of the bi-phasic curve [2] [nM] | Kd of the second phase of the bi-phasic curve [2] [nM] | dH of the first phase of the bi-phasic curve [2] [kcal/mol] | dH of the second phase of the bi-phasic curve [2] [kcal/mol] | Binder
1 | 100000 | 10000 | -9.94 ± 0.207 | 0.8 |  |  |  |  | SPKRIAKRRS [SPKRIAKRRS, wild-type 10-residue SPK-RCC1 N-terminal peptide]
2 |  |  |  |  | 1.5 | 140 | -31 ± 0.221 | -9.43 ± 0.192 | PPKRIAKRRS [PPKRIAKRRS, 10-residue PPK-RCC1 N-terminal peptide]
3 | 770000 | 1300 | -5.77 ± 0.093 | 0.9 |  |  |  |  | Me2-PPKRIAKRRS [me2PPKRIAKRRS, 10-residue me2-PPK-RCC1 N-terminal product peptide]
4 | 480000 | 2000 | -4.33 | 1.2 |  |  |  |  | Me3-SPKRIAKRRS [me3SPKRIAKRRS, 10-residue me3-SPK-RCC1 N-terminal product peptide]
